In paper PMC9678776, “A higher plant FAD synthetase is fused to an inactivated FAD pyrophosphatase” (The Journal of Biological Chemistry, 2022):

Tests used:
CrFADS1 = molecular target: T1, CrFADS1 (Chlamydomonas reinhardtii, UniProt A0A2K3D179); test: HPLC-fluorescence FAD synthetase assay, substrate-inhibition fit; assay type: biochemical; settings: substrate inhibition by FMN; 10 mM ATP, zinc acetate 2 mM above ATP, Hepes-NaOH pH 7.0, 30 °C
T1 construct: gene FADS1; bifunctional fusion
T1 sequence (A0A2K3D179 1-582): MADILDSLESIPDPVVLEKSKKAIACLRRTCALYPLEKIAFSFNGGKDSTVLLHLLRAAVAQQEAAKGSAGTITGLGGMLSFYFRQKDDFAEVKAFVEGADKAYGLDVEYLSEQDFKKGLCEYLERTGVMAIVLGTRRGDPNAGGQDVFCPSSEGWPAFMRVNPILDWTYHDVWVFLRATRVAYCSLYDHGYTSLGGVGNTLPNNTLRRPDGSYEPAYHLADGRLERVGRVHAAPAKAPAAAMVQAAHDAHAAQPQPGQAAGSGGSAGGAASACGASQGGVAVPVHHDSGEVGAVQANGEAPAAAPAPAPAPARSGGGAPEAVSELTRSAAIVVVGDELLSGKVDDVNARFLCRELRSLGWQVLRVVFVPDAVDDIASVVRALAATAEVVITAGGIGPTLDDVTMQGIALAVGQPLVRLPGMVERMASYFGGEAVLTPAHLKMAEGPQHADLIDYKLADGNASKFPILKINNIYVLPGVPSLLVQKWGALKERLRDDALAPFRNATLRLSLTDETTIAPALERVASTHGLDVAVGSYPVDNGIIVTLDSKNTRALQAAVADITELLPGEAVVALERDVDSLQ
Description: (§1) HPLC-fluorescence FAD synthetase assay, substrate-inhibition fit on CrFADS1

AtFADS1 = molecular target: T2, AtFADS1 (Arabidopsis thaliana, UniProt Q9LZE4); test: as above; assay type: biochemical; settings: substrate inhibition by FMN; 10 mM ATP, zinc acetate 2 mM above ATP, Hepes-NaOH pH 7.0, 30 °C
T2 construct: gene FADS1; N-terminus from primer MEIDKA
T2 sequence (Q9LZE4 1-497): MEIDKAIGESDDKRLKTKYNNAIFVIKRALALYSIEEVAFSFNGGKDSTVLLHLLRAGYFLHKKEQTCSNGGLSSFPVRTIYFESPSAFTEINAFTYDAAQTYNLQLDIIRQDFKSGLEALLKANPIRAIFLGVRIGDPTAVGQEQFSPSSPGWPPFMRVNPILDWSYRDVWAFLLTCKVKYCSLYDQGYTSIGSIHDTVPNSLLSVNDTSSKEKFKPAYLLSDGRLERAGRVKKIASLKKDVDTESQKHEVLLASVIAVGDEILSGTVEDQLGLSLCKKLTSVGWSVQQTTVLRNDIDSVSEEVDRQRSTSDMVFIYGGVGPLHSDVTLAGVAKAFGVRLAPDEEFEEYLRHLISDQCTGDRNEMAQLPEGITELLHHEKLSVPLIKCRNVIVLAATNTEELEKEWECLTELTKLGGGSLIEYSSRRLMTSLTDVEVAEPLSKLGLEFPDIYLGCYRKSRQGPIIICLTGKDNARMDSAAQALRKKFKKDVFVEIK
Description: HPLC-fluorescence FAD synthetase assay, substrate-inhibition fit on AtFADS1

AtFADS1^trunc = molecular target: T3, AtFADS1^trunc (Arabidopsis thaliana, UniProt Q9LZE4); test: as above; assay type: biochemical; settings: substrate inhibition by FMN; ATP, zinc acetate 2 mM above ATP, Hepes-NaOH pH 7.0, 30 °C
T3 construct: gene FADS1; N-terminal FAD synthetase domain only, starting at native Met1
T3 sequence (Q9LZE4 1-254 limits assumed): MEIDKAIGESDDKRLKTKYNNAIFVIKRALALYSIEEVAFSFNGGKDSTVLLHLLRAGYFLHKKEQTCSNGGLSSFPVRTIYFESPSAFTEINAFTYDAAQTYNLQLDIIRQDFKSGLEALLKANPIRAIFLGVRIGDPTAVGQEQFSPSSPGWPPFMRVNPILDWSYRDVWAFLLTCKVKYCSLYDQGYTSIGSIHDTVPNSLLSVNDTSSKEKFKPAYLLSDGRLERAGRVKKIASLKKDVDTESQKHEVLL
Description: HPLC-fluorescence FAD synthetase assay, substrate-inhibition fit on AtFADS1^trunc

[1] = substrate: Nc1ncnc2c1ncn2[C@@H]1O[C@H](COP(=O)(O)OP(=O)(O)OP(=O)(O)O)[C@@H](O)[C@H]1O; test: HPLC-fluorescence FAD synthetase assay, Michaelis-Menten; assay type: biochemical, Arabidopsis thaliana; settings: FAD synthetase activity, 15 μM FMN, zinc acetate 2 mM above ATP, Hepes-NaOH pH 7.0, 30 °C
Description: HPLC-fluorescence FAD synthetase assay, Michaelis-Menten on […]1

[2] = substrate: Cc1cc2nc3c(=O)[nH]c(=O)nc-3n(C[C@H](O)[C@H](O)[C@H](O)COP(=O)(O)O)c2cc1C; test: HPLC-fluorescence FAD synthetase assay, substrate-inhibition fit; assay type: biochemical, Chlamydomonas reinhardtii; settings: FAD synthetase activity, 10 mM ATP, zinc acetate 2 mM above ATP, Hepes-NaOH pH 7.0, 30 °C
Description: as §1

[3] = substrate: Cc1cc2nc3c(=O)[nH]c(=O)nc-3n(C[C@H](O)[C@H](O)[C@H](O)COP(=O)(O)OP(=O)(O)OC[C@H]3O[C@@H](n4cnc5c(N)ncnc54)[C@H](O)[C@@H]3O)c2cc1C; test: HPLC-fluorescence FAD pyrophosphatase assay, Michaelis-Menten; assay type: biochemical, Chlamydomonas reinhardtii; settings: FAD pyrophosphatase activity, 2 mM CoCl2, 200 mM KCl, Hepes-NaOH pH 7.0, 30 °C
Description: HPLC-fluorescence FAD pyrophosphatase assay, Michaelis-Menten on […]1

Q: Which “Ki” value (CrFADS1) does the source give for `Cc1cc2nc3c(=O)[nH]c(=O)nc-3n(C[C@H](O)[C@H](O)[C@H](O)COP(=O)(O)O)c2cc1C` [FMN] here?
A: Its value is 336 ± 66 µM.

Q: What about the “Ki” value (AtFADS1) of the same molecule?
A: The value was 190 ± 36 µM.

Q: And the “Ki” value (AtFADS1^trunc)?
A: The value was 32.7 ± 18.2 µM.

B1: AtFADS1 (Arabidopsis thaliana) (protein)
chain: MEIDKAIGESDDKRLKTKYNNAIFVIKRALALYSIEEVAFSFNGGKDSTVLLHLLRAGYFLHKKEQTCSNGGLSSFPVRTIYFESPSAFTEINAFTYDAAQTYNLQLDIIRQDFKSGLEALLKANPIRAIFLGVRIGDPTAVGQEQFSPSSPGWPPFMRVNPILDWSYRDVWAFLLTCKVKYCSLYDQGYTSIGSIHDTVPNSLLSVNDTSSKEKFKPAYLLSDGRLERAGRVKKIASLKKDVDTESQKHEVLLASVIAVGDEILSGTVEDQLGLSLCKKLTSVGWSVQQTTVLRNDIDSVSEEVDRQRSTSDMVFIYGGVGPLHSDVTLAGVAKAFGVRLAPDEEFEEYLRHLISDQCTGDRNEMAQLPEGITELLHHEKLSVPLIKCRNVIVLAATNTEELEKEWECLTELTKLGGGSLIEYSSRRLMTSLTDVEVAEPLSKLGLEFPDIYLGCYRKSRQGPIIICLTGKDNARMDSAAQALRKKFKKDVFVEIK
notes: N-terminus from primer MEIDKA
Q: Which Km [1] does the source give for B1 here?
A: The Km was 665 ± 11 µM.

Q: What about the kcat [1] of the same molecule?
A: Its kcat is 0.287 ± 0.011 s⁻¹.

Q: What about the kcat/Km [1] of the same molecule?
A: The kcat/Km was 432 ± 18 M⁻¹ s⁻¹.

B2: CrFADS1 (Chlamydomonas reinhardtii) (protein)
chain: MADILDSLESIPDPVVLEKSKKAIACLRRTCALYPLEKIAFSFNGGKDSTVLLHLLRAAVAQQEAAKGSAGTITGLGGMLSFYFRQKDDFAEVKAFVEGADKAYGLDVEYLSEQDFKKGLCEYLERTGVMAIVLGTRRGDPNAGGQDVFCPSSEGWPAFMRVNPILDWTYHDVWVFLRATRVAYCSLYDHGYTSLGGVGNTLPNNTLRRPDGSYEPAYHLADGRLERVGRVHAAPAKAPAAAMVQAAHDAHAAQPQPGQAAGSGGSAGGAASACGASQGGVAVPVHHDSGEVGAVQANGEAPAAAPAPAPAPARSGGGAPEAVSELTRSAAIVVVGDELLSGKVDDVNARFLCRELRSLGWQVLRVVFVPDAVDDIASVVRALAATAEVVITAGGIGPTLDDVTMQGIALAVGQPLVRLPGMVERMASYFGGEAVLTPAHLKMAEGPQHADLIDYKLADGNASKFPILKINNIYVLPGVPSLLVQKWGALKERLRDDALAPFRNATLRLSLTDETTIAPALERVASTHGLDVAVGSYPVDNGIIVTLDSKNTRALQAAVADITELLPGEAVVALERDVDSLQ
notes: bifunctional fusion
Q: What does the source list for B2?
A: Km [2]: 0.54 ± 0.09 µM; kcat [2]: 0.103 ± 0.004 s⁻¹; kcat/Km [2]: 191000 ± 33000 M⁻¹ s⁻¹; Km [3]: 4.88 ± 0.56 µM; kcat [3]: 0.395 ± 0.011 s⁻¹; kcat/Km [3]: 81000 ± 9600 M⁻¹ s⁻¹
